# Measurements: patent EP0629133B1, “PEPTIDE-METAL ION PHARMACEUTICAL APPLICATIONS” (Rhomed, Incorporated, priority 1992, dated 1993)
# Like-named read-outs stand apart in the source and are kept apart here. Ends that are not written are not given here.
# Assays:
# [1] = Biodistribution of 99mTc-YIGSR-peptide after tail vein injection; format: in vivo, adult female Swiss-Webster mice; details: biodistribution studies
# Procedure: The biodistribution of the ^99mTc-YIGSR-peptide of Example 12 was evaluated in adult female Swiss-Webster mice (approximately 19 g) at selected times (10, 30, and 120 minutes) after injection into the tail vein. Each experimental group was composed of at least five animals, with each animal receiving 0.1 ml containing 5 µg of peptide (1 µCi/µg). Animals were sacrificed by Halothane overdose, and selected organs dissected, weighed, and associated radioactivity determined. Data were analysed using a computer program specifically designed for ^99mTc-labelled preparations. The percent dose per organ for blood, bone, and muscle were calculated assuming 7, 8.2, and 40% of total body weight, respectively, for these tissues.
# whole blood clots = experiment: In vitro binding of 99mTc-YIGSR-containing peptide to whole blood clots; format: cell-based, human; details: 90 minutes, 0.5 ml of whole blood clots, 0.4 to 50 µg of radiolabelled peptide
# Procedure: (§1) In other experiments, the peptide of Example 12, labelled as in Example 13, was used for in vitro binding studies. In these studies, the ^99mTc-YIGSR-containing peptide was incubated for 90 minutes with either 0.5 ml of whole blood clots, using from 0.4 to 50 µg of radiolabelled peptide, or with approximately 10^7 platelets, using from 2 to 200 µg of radiolabelled peptide.
# [2] = Biodistribution after pre-incubation of 99mTc-YIGSR-peptide in whole human blood; format: in vivo, mice; details: pre-incubated 30 minutes in whole human blood, compared with no incubation in blood
# Procedure: (§2) Some studies involved pre-incubation of the ^99mTc-YIGSR-peptide in whole blood prior to injection and determination of biodistribution (Table 7). In these studies, whole human blood was obtained from a healthy adult donor and collected into Vacutainer tubes containing EDTA. After mixing to insure proper dissolution of the EDTA, approximately 2.5 ml of the whole blood was removed and mixed with 0.25 ml of ^99mTc-YIGSR-peptide. The mixture was allowed to incubate 30 minutes at room temperature. After 30 minutes, aliquots of 0.1 ml were injected into the tail vein of the mice. The amount of radioactivity in the circulation for ^99mTc-YIGSR-peptide of Example 12 pre-incubated in whole blood was similar to that in animals receiving ^99mTc-YIGSR-peptide without incubation in blood.
# thromboembolism = experiment: Diagnostic imaging of thrombosis in a patient (gamma scintigraphy or SPECT); format: in vivo; details: kit of Examples 12, 18, 19, or 20, i.v., imaged at 30 minute intervals
# Procedure: A kit of Examples 12, 18, 19, or 20 is used in to localise thromboembolism in a patient. After radiolabelling with ^99mTc as in Example 13, the ^99mTc-YIGSR-peptide is injected intravenously. Starting immediately upon injection, the patient is imaged, using conventional gamma scintigraphy or SPECT imaging, and is imaged at 30 minute intervals thereafter.
# platelets = experiment: In vitro binding of 99mTc-YIGSR-containing peptide to platelets; format: cell-based, human; details: 90 minutes, approximately 10^7 platelets, 2 to 200 µg of radiolabelled peptide
# Procedure: as §1
# [3] = Clearance rates of 99mTc-YIGSR-peptide (plasma, urine, bile; cannulated animals); format: in vivo, adult female Sprague-Dawley rats
# Procedure: The clearance rates of the ^99mTc-YIGSR-peptide of Example 12 was evaluated in adult female Sprague-Dawley rats at 2 hours after injection. Each experimental group was composed of three animals. Each animal was anaesthetised with ketamine and the bile duct and bladder were cannulated. Blood was collected over various periods of time from the jugular vein. […] In biodistribution studies, the highest amount of radioactivity was found in the kidneys, and is consistent with the rat clearance data. No major accumulation of radioactivity was found in any organ examined (other than kidney), and at later times (2 and 4 hours post injection) no re-distribution of the radiolabel was noted.
# [4] = design: species or system adult female Fischer 344 rats; details: rat, in vivo
# Procedure: The clearance rates of the ^99mTc-IKVAV-containing peptide of Example 4 was evaluated in adult female Fischer 344 rats at 2 hours after injection. Each experimental group was composed of three animals. Each animal was anaesthetised with ketamine and the bile duct and bladder were cannulated. Blood was collected over various periods of time from the jugular vein.
# [5] = freshly radiolabelled
# [6] = design: species or system tight-skin (Tsk) mouse; details: mouse, in vivo
# Description: Biodistribution was also studied in a lung disease model which used tight-skin mice with genetic emphysema. The tight-skin (Tsk) mouse is a genetic mutant caused by a dominant gene deficiency of serum anti-elastase. Heterozygous (Tsk/+) animals show multiple skin connective tissue abnormalities resembling scleroderma as well as an increased growth of cartilage, bone, and small tendons with hyperplasia of the tendon sheaths. The Tsk trait is associated with progressive pulmonary emphysema and development of right ventricular hypertrophy, as well as with lung collagen changes. These mice, as well as genetic control mice (pallid), were obtained from The Jackson Laboratory (Bar Harbor, ME). The relative localisation of ^99mTc-IKVAV-peptide of Example 4 at all time points examined (10, 30, and 120 minutes post-injection), was decreased in the lungs of animals with emphysema relative to paired control animals.
# [7] = design: species or system mice; details: mouse, in vivo
# Procedure: as §2, with “^99mTc-IKVAV-containing peptide” for “^99mTc-YIGSR-peptide”, “biodistribution.” for “biodistribution (Table 7).”, “adult male” for “adult”, “^99mTc-peptide.” for “^99mTc-YIGSR-peptide.”, “^99mTc-IKVAV-containing peptide” for “^99mTc-YIGSR-peptide of Example 12”, “higher than” for “similar to that”
Substance,organ with the highest amount of radioactivity [1],binding to whole blood clots (whole blood clots),amount of radioactivity in the circulation [2],appearance of sites of thromboembolism by scintigraphy (thromboembolism),binding to platelets (platelets),bile clearance ([3]; at two hours) [%],injected doses cleared through urine ([3]; at two hours) [%],clearance rate from the plasma ([3]; rats) [mL/min],bile clearance [4] [%],clearance rate from the plasma [4] [mL/min],injected dose cleared through urine [4] [%],particles under a phase contrast microscope [5],relative localisation in the lungs [6],amount of radioactivity in the circulation [7],lung uptake [7]
H-CDPGYIGSR [^99mTc-YIGSR-peptide],kidneys,dose-response relationship,similar,photon-rich image locations,dose-response relationship,6.9 ± 0.3,31.2 ± 9.1,2.6,–,–,–,–,–,–,–
CSRARKQAASIKVAVSADR [^99mTc-IKVAV-containing peptide],–,–,–,–,–,–,–,–,0.9 ± 0.3,2.4,10.8 ± 4.9,No particles were visible,decreased,higher,significantly decreased
